Experiments:
[1] = biological target: T1, FAM19A5 protein (Homo sapiens, UniProt Q7Z5A7); test: ELISA, coated hFc-conjugated ectodomain (100 nM/well), rFAM19A5 titrated 0.005-10 nM
[2] = biological target: T1, FAM19A5 protein; test: competitive inhibition ELISA; competitor: coated LRRC4B(453-576, TT/TT)-hFc
[3] = biological target: T1, FAM19A5 protein; test: Co-immunoprecipitation of FLAG-tagged LRRC4 family deletion constructs/fragments with recombinant FAM19A5 in HEK293 cells; format: binding; details: HEK293 cells expressing FLAG-tagged construct, recombinant FAM19A5 1 μM 30 minutes; IP anti-FLAG, blot anti-FAM19A5 (3-2)
Experimental: To understand the interaction between FAM19A5 and members of the LRRC4 protein family, HEK293 cells were modified to express a FLAG-tagged member of the LRRC4 protein family, i.e., LRRC4C protein, LRRC4 protein, or LRRC4B protein. Then, the HEK293 cells or primary cortical neurons were treated with recombinant FAM19A5 protein (1 μM) for 30 minutes, and the binding between FAM19A5 protein and the different members of the LRRC4 protein family was assessed using both co-immunoprecipitation and immunofluorescence assays.
For the co-immunoprecipitation assay, cell lysates from the different FAM19A5-treated HEK293 cells were collected and immunoprecipitated with an anti-FLAG antibody, anti-FAM19A5 (1-65) antibody, or a human IgG antibody (control). Immunoprecipitated proteins were immunoblotted with anti-FLAG and anti-FAM19A5 (3-2) antibodies. For the immunofluorescence assay, the HEK293 cells treated with the recombinant FAM19A5 protein were immunostained with anti-FAM19A5 (3-2) (to detect FAM19A5 protein expression) and anti-FLAG antibodies (to detect member of the LRRC4 protein family). The primary cortical neurons treated with the recombinant FAM19A5 protein were immunostained with anti-FAM19A5 (3-2) and anti-LRRC4B antibodies. The nuclei were stained with Hoechst33342 (blue).
To determine the specific motif or domain of the LRRC4B protein that is responsible for the binding to a FAM19A5 protein, various FLAG-tagged LRRC4B deletion constructs were generated (see Table 6 below). HEK293 cells were transfected with the different deletion constructs and then treated with recombinant FAM19A5 protein as described in Example 1. Then, the cell lysates from the different HEK293 cells were immunoprecipitated with the anti-FLAG antibody. The immunoprecipitated proteins were immunoblotted with anti-FLAG and anti-FAM19A5 (3-2) antibodies.
As described in Example 2, all members of the LRRC4 protein family were capable of binding to FAM19A5 protein to varying degrees. Therefore, to compare the bindings domains, the amino acid sequences of the LRRC4B, LRRC4, and LRRC4C proteins were aligned. […] Therefore, to assess whether the corresponding positions of LRRC4 and LRRC4C were important in the binding of these proteins to FAM19A5 protein, cDNAs encoding either (i) LRRC4C protein fragment (amino acids 354-527 of SEQ ID NO: 3; SEQ ID NO: 66) or (ii) LRRC4 protein fragment (amino acids 353-527 of SEQ ID NO: 1; SEQ ID NO: 67) were constructed (see Table 7). HEK293 cells were transfected to express either of the protein fragments and then treated with recombinant FAM19A5 protein as described in Example 1. Then, the cell lysates from the different HEK293 cells were immunoprecipitated with the anti-FLAG antibody. The immunoprecipitated proteins were immunoblotted with anti-FLAG and anti-FAM19A5 (3-2) antibodies.
Target sequence in this assay (Q7Z5A7 44-132): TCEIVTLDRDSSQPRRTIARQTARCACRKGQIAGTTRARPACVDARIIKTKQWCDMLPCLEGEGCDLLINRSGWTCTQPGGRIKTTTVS

[4] = biological target: binding of FAM19A5 protein to full-length ectodomain of the LRRC4B protein (amino acids 36-576 of SEQ ID NO: 2) (Homo sapiens, UniProt Q7Z5A7); test: Competitive inhibition assay, plate coated with full-length ectodomain of LRRC4B (amino acids 36-576); details: increasing concentrations; FAM19A5 5 ng/mL; 100 nM coat
Experimental: Next, to further assess the role that the binding domain of the LRRC4B protein has on the interaction between FAM19A5 protein and members of the LRRC4 protein family, a competitive inhibition assay was used to determine whether different LRRC4B deletion constructs from Example 2 could inhibit the binding of FAM19A5 to the full-length ectodomain of the LRRC4B protein (i.e., amino acids 36-576 of SEQ ID NO: 2; SEQ ID NO: 5). Briefly, 100 nM of the full-length ectodomain of the LRRC4B protein was used to coat a plate, and then recombinant FAM19A5 protein (5 ng/mL) was added to the plate in combination with the following LRRC4B deletion constructs (increasing concentrations): (1) LRRC4B (453-576) (i.e., construct #11 in Table 6); (2) LRRC4B (453-576) mutant (comprises alanine substitutions at positions 488 and 489 of SEQ ID NO: 2; SEQ ID NO: 16); (3) LRRC4B (484-576) (i.e., construct #12 in Table 6); (4) LRRC4B (482-576); (5) LRRC4B (482-497); and (6) LRRC4B (498-576). The plates were incubated at 37° C., and then, the amount of FAM19A5 bound to the coated LRRC4B ectodomain protein was measured using HRP-conjugated anti-FAM19A5 (1-65) antibody.
(§1) As described in Example 3, there appeared to be much similarity in the binding domains of the different members of the LRRC4 family. […] Then, recombinant FAM19A5 protein (5 ng/mL) was added in combination with one of the following: (i) LRRC4B (484-576) protein fragment, (ii) LRRC4B (453-576, AA) protein fragment, and (iii) synthetic FB-20 peptide. The plates were incubated at 37° C., and then, the amount of FAM19A5 protein bound to the coated LRRC4, LRRC4B, or LRRC4C proteins was measured using anti-FAM19A5 (1-65) antibody.
Next, to assess whether polypeptides comprising the binding domains of LRRC4 or LRRC4C proteins can have similar inhibitory effects on LRRC4B protein binding, the following synthetic peptides were constructed: (1) FBC4-23 (contains the binding domain of the LRRC4 protein, i.e., YSFFTTVTVETTE); and (2) FBC4C-23 (contains the binding domain of the LRRC4C protein, i.e., FSYFSTVTVETME). Then, the ability of the peptides to inhibit the binding of LRRC4 protein family members to FAM19A5 protein was assessed using a competitive inhibition assay. Briefly, plates were coated with 100 nM of either LRRC4B protein fragment #1 (amino acids 36-576 of SEQ ID NO: 2; SEQ ID NO: 5) or LRRC4B protein fragment #2 (amino acids 453-576 of SEQ ID NO: 2; SEQ ID NO: 7). Then, recombinant FAM19A5 protein (5 ng/ml for plates coated with LRRC4B fragment #1; and 1 ng/mL for plates coated with LRRC4B fragment #2) was added to the plates in combination with 20 nM of the FBC4-23, FBC4C-23, and FB-20 peptides. The plates were incubated at 37° C. and then, the amount of FAM19A5 protein bound to the coated LRRC4B protein fragments was assessed using HRP-conjugated anti-FAM19A5 (1-65) antibody.
Next, to determine the minimal sequence required to inhibit the interaction of FAM19A5 and members of the LRRC4 protein family, ten FB-20 peptide variants were constructed by serially deleting one or more amino acids from the N-terminus or C-terminus of the FB-20 peptide. Then, a competitive inhibition assay was used to assess the ability of the different FB-20 peptide variants to inhibit the interaction between FAM19A5 and LRRC4B protein. Again, plates were coated with 100 nM of either LRRC4B protein fragment #1 (amino acids 36-576 of SEQ ID NO: 2; SEQ ID NO: 5) or LRRC4B protein fragment #2 (amino acids 453-576 of SEQ ID NO: 2; SEQ ID NO: 7). Then, recombinant FAM19A5 protein (5 ng/ml for plates coated with LRRC4B fragment #1; and 1 ng/mL for plates coated with LRRC4B fragment #2) was added to the plates in combination with 20 nM of the different peptides described above. After incubating the plates at 37° C., the amount of FAM19A5 protein bound to the coated LRRC4B protein fragments was assessed using HRP-conjugated anti-FAM19A5 (1-65) antibody. […]

[5] = biological target: binding of FAM19A5 protein to full-length ectodomain of LRRC4 protein (Homo sapiens, UniProt Q7Z5A7); test: Competitive inhibition assay, plate coated with full-length ectodomain of LRRC4; details: FAM19A5 5 ng/mL; 100 nM/well coat
Experimental: as §1

[6] = biological target: binding of FAM19A5 protein to full-length ectodomain of LRRC4C protein (Homo sapiens, UniProt Q7Z5A7); test: Competitive inhibition assay, plate coated with full-length ectodomain of LRRC4C; details: FAM19A5 5 ng/mL; 100 nM/well coat
Experimental: as §1

[7] = biological target: T2, FAM19A5 isoform 2 - LRRC4B protein complex in HEK293 cells (Homo sapiens, UniProt Q7Z5A7); test: Immunofluorescence: dissociation of FAM19A5 from full-length LRRC4B in HEK293 cells; format: cell-based; details: HEK293 cells expressing FAM19A5 isoform 2 and LRRC4B, treated 30 minutes
T2 construct: expressed in transfected cells; host or cells: HEK293
Experimental: Since LRRC4B protein fragments containing the binding domain described in Example 2 (e.g., LRRC4B (453-576); i.e., construct #11 in Table 6) was able to bind to FAM19A5 protein with high affinity, it was next assessed whether such protein fragments could compete with naturally existing LRRC4B protein for binding to FAM19A5 protein, and thereby, dissociate the FAM19A5-LRRC4 protein family complex. Briefly, HEK293 cells expressing both FAM19A5 isoform 2 and LRRC4B protein were treated in vitro for 30 minutes with either LRRC4B (453-576)-hFc or mutant LRRC4B (453-576)-hFc (includes alanine substitutions at positions 488 and 489 of SEQ ID NO: 2; SEQ ID NO: 16) protein fragments. Then, cells were immunostained with anti-FAM19A5 (1-65) and anti-LRRC4B antibodies to determine the expression of FAM19A5 and full-length LRRC4B proteins, respectively. The hFc-fused LRRC4B protein fragments were determined using an anti-hIgG antibody. The nuclei were stained with Hoechst 33342.

Sequence of binding of FAM19A5 protein to full-length ectodomain of the LRRC4B protein (amino acids 36-576 of SEQ ID NO: 2) (Q7Z5A7 44-132): as above
Sequence of binding of FAM19A5 protein to full-length ectodomain of LRRC4 protein (Q7Z5A7 44-132): as above
Sequence of binding of FAM19A5 protein to full-length ectodomain of LRRC4C protein (Q7Z5A7 44-132): as above
T2 sequence (Q7Z5A7 1-125 isoform Q7Z5A7-2, one chain of several): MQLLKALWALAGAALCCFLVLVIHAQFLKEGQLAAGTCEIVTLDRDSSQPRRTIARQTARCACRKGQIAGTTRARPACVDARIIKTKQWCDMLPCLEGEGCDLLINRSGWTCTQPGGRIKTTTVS

B1: full-length ectodomain of LRRC4 protein (amino acid residues 39-527 of SEQ ID NO: 1) conjugated to human Fc (Fc fusion, not shown: a dimerising Fc or GST)
chain: ASAGPQNCPSVCSCSNQFSKVVCTRRGLSEVPQGIPSNTRYLNLMENNIQMIQADTFRHLHHLEVLQLGRNSIRQIEVGAFNGLASLNTLELFDNWLTVIPSGAFEYLSKLRELWLRNNPIESIPSYAFNRVPSLMRLDLGELKKLEYISEGAFEGLFNLKYLNLGMCNIKDMPNLTPLVGLEELEMSGNHFPEIRPGSFHGLSSLKKLWVMNSQVSLIERNAFDGLASLVELNLAHNNLSSLPHDLFTPLRYLVELHLHHNPWNCDCDILWLAWWLREYIPTNSTCCGRCHAPMHMRGRYLVEVDQASFQCSAPFIMDAPRDLNISEGRMAELKCRTPPMSSVKWLLPNGTVLSHASRHPRISVLNDGTLNFSHVLLSDTGVYTCMVTNVAGNSNASAYLNVSTAELNTSNYSFFTTVTVETTEISPEDTTRKYKPVPTTSTGYQPAYTTSTTVLIQTTRVPKQVAVPATDTTDKMQTSLDEVMKTTK
EC50 [1]: 0.48 nM

B2: FB-21 (W12Y13) (peptide)
peptide: GYTYFTTVTVEWYETQPGEEA
fold increase in the ability to dissociate the LRRC4B-FAM19A5 complex, compared with the wild-type FB-21 [2]: 2.9 fold

B3: LRRC4B (484-576): LRRC4B ectodomain fragment, amino acids 484-576 of SEQ ID NO: 2 (protein)
chain: YTYFTTVTVETLETQPGEEALQPRGTEKEPPGPTTDGVWGGGRPGDAAGPASSSTTAPAPRSSRPTEKAFTVPITDVTENALKDLDDVMKTTK
binding to FAM19A5 protein (co-immunoprecipitation) [3]: able to bind to the FAM19A5 protein with varying degree
inhibition of FAM19A5 binding to coated full-length LRRC4B ectodomain protein (in words) [4]: also able to inhibit the interaction
inhibition of FAM19A5 binding to coated LRRC4 protein (in words) [5]: able to inhibit FAM19A5 protein from binding
inhibition of FAM19A5 binding to coated LRRC4C protein (in words) [6]: able to inhibit FAM19A5 protein from binding

B4: LRRC4B mutant: LRRC4B (453-576) with alanine substitutions at positions 488 and 489 of SEQ ID NO: 2 (protein)
chain: VSAVDPVAAGGTGSGGGGPGGSGGVGGGSGGYTYFAAVTVETLETQPGEEALQPRGTEKEPPGPTTDGVWGGGRPGDAAGPASSSTTAPAPRSSRPTEKAFTVPITDVTENALKDLDDVMKTTK
modifications: human Fc
dissociation of FAM19A5 from full-length LRRC4B protein [7]: remained largely bound to the full-length LRRC4B protein
inhibition of FAM19A5 binding to coated full-length LRRC4B ectodomain protein (in words) [4]: much inferior in their ability to inhibit the interaction
inhibition of FAM19A5 binding to coated LRRC4 protein (in words) [5]: minimal effect
inhibition of FAM19A5 binding to coated LRRC4C protein (in words) [6]: minimal effect

B5: full-length ectodomain of LRRC4B protein (amino acids 36-576 of SEQ ID NO: 2) conjugated to human Fc (Fc fusion, not shown: a dimerising Fc or GST)
chain: AGGGGVAVTSAAGGGSPPATSCPVACSCSNQASRVICTRRDLAEVPASIPVNTRYLNLQENGIQVIRTDTFKHLRHLEILQLSKNLVRKIEVGAFNGLPSLNTLELFDNRLTTVPTQAFEYLSKLRELWLRNNPIESIPSYAFNRVPSLRRLDLGELKRLEYISEAAFEGLVNLRYLNLGMCNLKDIPNLTALVRLEELELSGNRLDLIRPGSFQGLTSLRKLWLMHAQVATIERNAFDDLKSLEELNLSHNNLMSLPHDLFTPLHRLERVHLNHNPWHCNCDVLWLSWWLKETVPSNTTCCARCHAPAGLKGRYIGELDQSHFTCYAPVIVEPPTDLNVTEGMAAELKCRTGTSMTSVNWLTPNGTLMTHGSYRVRISVLHDGTLNFTNVTVQDTGQYTCMVTNSAGNTTASATLNVSAVDPVAAGGTGSGGGGPGGSGGVGGGSGGYTYFTTVTVETLETQPGEEALQPRGTEKEPPGPTTDGVWGGGRPGDAAGPASSSTTAPAPRSSRPTEKAFTVPITDVTENALKDLDDVMKTTK
EC50 [1]: 0.64 nM

From patent US20240238445A1, “INHIBITORS AND USES THEREOF” (NEURACLE SCIENCE CO., LTD., priority 2021, published 2024)
